Measured values taken from the supplement of paper PMC9170038.

Test system: K4 kissing-loop RNA reporter
Experiment: apparent KD of K4 kissing-loop reporter; higher = weaker reporter binding
Conditions: Eterna round: R107
Experimental: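 RNA-MaP round R107: designed RNA switches with theophylline, tryptophan, arginine or FMN aptamers are transcribed on-chip within common flanks. They are titrated with a labelled K4 kissing-loop RNA reporter in RNA-MaP buffer (100 mM Tris pH 7.5, 80 mM KCl, 4 mM MgCl2), without ligand or with the indicated ligand. Median apparent KD per design.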

[1] = input ligand: theophylline 20 uM
[2] = input ligand: tryptophan 2.4 mM
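Also: bound reporter read as fluorescence of individual clusters on recovered sequencing chips by microscopy, with normalized cluster intensities fitted with a binding model.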

In the case of “AGACUACCACACUGUCAAUAGACAGUGUACUAGGAUAUGCUGAUAAGCAGAAGGAGUGAUGUUCCAAGGUAGUCAAUAAAAUAAU [FmnAX 13 U28+A66]”, the “apparent KD of K4 kissing-loop reporter” value (input ligand: FMN 200 uM) is reported as 393 nM, the “apparent KD of K4 kissing-loop reporter” value (input ligand: arginine 13.2 mM) is reported as 213 nM and the “apparent KD of K4 kissing-loop reporter” value (input ligand: none) is reported as 206 nM. The “apparent KD of K4 kissing-loop reporter” value [1] was 291 nM and the “apparent KD of K4 kissing-loop reporter” value [2] was 206 nM.
For “AGACUACUGAUAGGAUAUAACAUCCUAGUCGUAUACCGAAAGGUAUACGAUUCCCUUCUAGUGAUGUUAGAAGGGUCGGUAGUCA [Omei KL FMN B Exc B v12]”, the “apparent KD of K4 kissing-loop reporter” value (input ligand: FMN 200 uM) was 78.5 nM, the “apparent KD of K4 kissing-loop reporter” value (input ligand: arginine 13.2 mM) was 69.2 nM and the “apparent KD of K4 kissing-loop reporter” value (input ligand: none) was 71.3 nM. The “apparent KD of K4 kissing-loop reporter” value [1] was 60.9 nM and the “apparent KD of K4 kissing-loop reporter” value [2] was 78.9 nM.
“AGACUUCACCGAAGGAGCGACGUAGCCUAGUGAUGUUAGGCGCGAGAGAAAUCUCGUAUACGUCAGGUAGGUCGCGGUGAAGUCA [Omei KL Arginine B SS C v4]” was tested, and the “apparent KD of K4 kissing-loop reporter” value (input ligand: FMN 200 uM) was 163 nM, the “apparent KD of K4 kissing-loop reporter” value (input ligand: arginine 13.2 mM) was 129 nM and the “apparent KD of K4 kissing-loop reporter” value (input ligand: none) was 152 nM. For the same sequence, the “apparent KD of K4 kissing-loop reporter” value [1] was 126 nM and the “apparent KD of K4 kissing-loop reporter” value [2] was 146 nM.
With “AGAGAGGUGUUUUUUUGAAGUGAGUAAUGGCGAGGACCGGUACGGCCGCCACUCGGGUGAUGUUAGUGAUGUUGAUGUAGUGAUG [yrymullin]” the “apparent KD of K4 kissing-loop reporter” value (input ligand: FMN 200 uM) was 79.3 nM, the “apparent KD of K4 kissing-loop reporter” value (input ligand: arginine 13.2 mM) was 60.8 nM and the “apparent KD of K4 kissing-loop reporter” value (input ligand: none) was 66.3 nM. For the same sequence, the “apparent KD of K4 kissing-loop reporter” value [1] was 114 nM and the “apparent KD of K4 kissing-loop reporter” value [2] was 65.6 nM.
“AGAGAUAUAUGAGGAUAUGAGAUAGUUAAUGAGUGAGUUAUAGUGUUGUUUGGUUAGUGAUGUUAUUUAGAAGGCGUGAGUGAUG [immumullin]” was tested, and the “apparent KD of K4 kissing-loop reporter” value (input ligand: FMN 200 uM) was 130 nM, the “apparent KD of K4 kissing-loop reporter” value (input ligand: arginine 13.2 mM) was 94.7 nM and the “apparent KD of K4 kissing-loop reporter” value (input ligand: none) was 110 nM. For the same sequence, the “apparent KD of K4 kissing-loop reporter” value [1] was 119 nM and the “apparent KD of K4 kissing-loop reporter” value [2] was 82.5 nM.
In the case of “AGAGAUAUAUGAGGAUAUGGGAUAGUUAAUGAGUUAGUUUUAGUGUUGUUUGGUUAGUGAUGUUAUUUAGAAGGCGUGAGUGAUG [rxxvgmullin]”, the “apparent KD of K4 kissing-loop reporter” value (input ligand: FMN 200 uM) is reported as 106 nM, the “apparent KD of K4 kissing-loop reporter” value (input ligand: arginine 13.2 mM) is reported as 75.8 nM and the “apparent KD of K4 kissing-loop reporter” value (input ligand: none) is reported as 81.7 nM. For the same sequence, the “apparent KD of K4 kissing-loop reporter” value [1] was 109 nM and the “apparent KD of K4 kissing-loop reporter” value [2] was 71.1 nM.
“AGAUUCGACACGGCCGCCACUUCCGGUGGCUGGUGUCAUGGUGCGCGUGAGUGAUGUUUAUGUGGAAGGACCGGGUGUUGAGUCU [whbob_Ex_Tryp_B_w41]” was tested, and the “apparent KD of K4 kissing-loop reporter” value (input ligand: FMN 200 uM) was 597 nM, the “apparent KD of K4 kissing-loop reporter” value (input ligand: arginine 13.2 mM) was 525 nM and the “apparent KD of K4 kissing-loop reporter” value (input ligand: none) was 730 nM. For the same sequence, the “apparent KD of K4 kissing-loop reporter” value [1] was 751 nM and the “apparent KD of K4 kissing-loop reporter” value [2] was 872 nM.
“AGCAAUAUCACGGCCGCCACUGAUUAUUGUUUUUAUAGUUAUAAAUCUUGCCAGUGAUGUUGGUUCAGGACCGGGUGAGUUAAUA [JR_SSTryptoB_Sub002]” was tested, and the “apparent KD of K4 kissing-loop reporter” value (input ligand: FMN 200 uM) was 498 nM, the “apparent KD of K4 kissing-loop reporter” value (input ligand: arginine 13.2 mM) was 565 nM and the “apparent KD of K4 kissing-loop reporter” value (input ligand: none) was 727 nM. The “apparent KD of K4 kissing-loop reporter” value [1] was 620 nM and the “apparent KD of K4 kissing-loop reporter” value [2] was 373 nM.
“AGCAGGAGUGAUGUUCCUGUGGCAUAAGUUCGAGGACCGGUACGGCCGCCACUCGUAACAUUAAUCCGUCCUUGAUCAGAUAAGA [theeternabot_sameState_KL_Trp_A_12]” was tested, and the “apparent KD of K4 kissing-loop reporter” value (input ligand: FMN 200 uM) was 195 nM, the “apparent KD of K4 kissing-loop reporter” value (input ligand: arginine 13.2 mM) was 186 nM and the “apparent KD of K4 kissing-loop reporter” value (input ligand: none) was 216 nM. The “apparent KD of K4 kissing-loop reporter” value [1] was 243 nM and the “apparent KD of K4 kissing-loop reporter” value [2] was 101 nM.
With “AGCAGUCAACUCGAAACCAUCGAAGAUGGUCGAGGACCGGUACGGCCGCCACUCGGAGUGAUGUUCCGAAGACUGCAAAAUAAAA [#SwitchBubble 14]” the “apparent KD of K4 kissing-loop reporter” value (input ligand: FMN 200 uM) was 283 nM, the “apparent KD of K4 kissing-loop reporter” value (input ligand: arginine 13.2 mM) was 299 nM and the “apparent KD of K4 kissing-loop reporter” value (input ligand: none) was 307 nM. For the same sequence, the “apparent KD of K4 kissing-loop reporter” value [1] was 328 nM and the “apparent KD of K4 kissing-loop reporter” value [2] was 477 nM.
For “AGCAGUCACUCGAAAAACCAUCGAAGAUGGCGAGGACCGGUACGGCCGCCACUCGGAGUGAUGUUCCGAAGACUGCAAAAUAAAA [#SwitchBubble 15]”, the “apparent KD of K4 kissing-loop reporter” value (input ligand: FMN 200 uM) was 350 nM, the “apparent KD of K4 kissing-loop reporter” value (input ligand: arginine 13.2 mM) was 438 nM and the “apparent KD of K4 kissing-loop reporter” value (input ligand: none) was 368 nM. For the same sequence, the “apparent KD of K4 kissing-loop reporter” value [1] was 313 nM and the “apparent KD of K4 kissing-loop reporter” value [2] was 435 nM.
For “AGCCGAAAGGCGAGUGCUGUCGCUCCGGAAGGAGCGCAGGAAACUGCAGGUAGGUCGCCGGAGUGAUGUUUUGGUGCAGCACUCA [Omei KL Arginine A Exc B v7]”, the “apparent KD of K4 kissing-loop reporter” value (input ligand: FMN 200 uM) was 163 nM, the “apparent KD of K4 kissing-loop reporter” value (input ligand: arginine 13.2 mM) was 218 nM and the “apparent KD of K4 kissing-loop reporter” value (input ligand: none) was 129 nM. For the same sequence, the “apparent KD of K4 kissing-loop reporter” value [1] was 132 nM and the “apparent KD of K4 kissing-loop reporter” value [2] was 134 nM.
With “AGGAGCGUGGGAUGAAAAUCGCACGCUCCUCGAGGACCGGUACGGCCGCCACUCGCUCGCGCCGAGUGAUGUUCGGCCGGCGAAC [#2 Same State - Tryptophan A Attempt #12 (HarryS)]” the “apparent KD of K4 kissing-loop reporter” value (input ligand: FMN 200 uM) was 265 nM, the “apparent KD of K4 kissing-loop reporter” value (input ligand: arginine 13.2 mM) was 244 nM and the “apparent KD of K4 kissing-loop reporter” value (input ligand: none) was 312 nM. For the same sequence, the “apparent KD of K4 kissing-loop reporter” value [1] was 217 nM and the “apparent KD of K4 kissing-loop reporter” value [2] was 556 nM.
In the case of “AGGAUCACGUCAGUGAUGUUGACAAGAGAUACCAGAGACGAAAGUCUCCCUUGGCAGCUCACUGUGAUCCGUGACAAAGGUCACA [Omei KL hio A SS C v1]”, the “apparent KD of K4 kissing-loop reporter” value (input ligand: FMN 200 uM) is reported as 146 nM, the “apparent KD of K4 kissing-loop reporter” value (input ligand: arginine 13.2 mM) is reported as 63.2 nM and the “apparent KD of K4 kissing-loop reporter” value (input ligand: none) is reported as 98.3 nM. The “apparent KD of K4 kissing-loop reporter” value [1] was 154 nM and the “apparent KD of K4 kissing-loop reporter” value [2] was 76 nM.
With “AGGAUCACGUCAGUGAUGUUGACGAGAGAUACCAGAGACGAAAGUCUCCCUUGGCAGCUCAUCGUGAUCCGUGACAAAGGUCACA [Omei KL hio A SS C v4]” the “apparent KD of K4 kissing-loop reporter” value (input ligand: FMN 200 uM) was 338 nM, the “apparent KD of K4 kissing-loop reporter” value (input ligand: arginine 13.2 mM) was 203 nM and the “apparent KD of K4 kissing-loop reporter” value (input ligand: none) was 317 nM. The “apparent KD of K4 kissing-loop reporter” value [1] was 278 nM and the “apparent KD of K4 kissing-loop reporter” value [2] was 297 nM.
With “AGGCACGAGCAAGGAUAUCGAGUAGAGUGAUGUUCUGCCUGGGUUGGCUCGGAAGAGCCUUCUCAGCGAGAAGGUGCUCGUGCCU [#2 Same State - FMN A Attempt #19 (HarryS)]” the “apparent KD of K4 kissing-loop reporter” value (input ligand: FMN 200 uM) was 235 nM, the “apparent KD of K4 kissing-loop reporter” value (input ligand: arginine 13.2 mM) was 604 nM and the “apparent KD of K4 kissing-loop reporter” value (input ligand: none) was 747 nM. The “apparent KD of K4 kissing-loop reporter” value [1] was 923 nM and the “apparent KD of K4 kissing-loop reporter” value [2] was 888 nM.
